Results: PMC7666153, “The phosphorylated regulator of chemotaxis is crucial throughout biofilm biogenesis in Shewanella oneidensis” (NPJ Biofilms and Microbiomes, 2020)

Biological target: the molecule itself
Assay: cross-linking; Strep-tagged CheY3 (11.8 µM) and His-tagged SO4207S (3.1 µM), together or separately, 5 mM EDC, 1 h at room temperature, 10 mM cacodylate buffer; SDS-PAGE and blot with HisProbe-HRP

B1: His-tagged SO4207S (soluble cytoplasmic domain of SO4207, D388 to N625) (domain or fragment, S. oneidensis, UniProt Q8E9Q9 388-625, looked up)
chain: DERKAKQRIQQEALKQAQKIRSAREEALKVEAETNERLEQKVQERTLELEITLRELHEVNQKLTEQSTIDSLTGVKNRSAFDKRLLAESRISRRQETPIALLMLDIDRFKSINDQFGHLAGDQALKLIAQTLQQHLKRPTDLVSRFGGEEFAIILPNTTADGALQVAESIRDTVSCIGLTWEGKPIPLTVSIGVSADVIMNEQHSTELLEQADKALYQAKNSGRNQVKLYAPAQTEPN
notes: diguanylate cyclase SO4207 of Shewanella oneidensis, cytoplasmic domain D388 to N625, devoid of the transmembrane segments; Cloned into pET21b; printed mass 30 kDa; also called pET-SO4207S; source: E. coli BL21 (DE3), purified (HisTrapFF); not shown: 6xHis-tag, C-terminal, kept
stoichiometry N: 2
